Source: paper PMC10244696, “Thioredoxin TRXo1 is involved in ABA perception via PYR1 redox regulation” (Redox Biology, 2023)

T1: PYR1 in Arabidopsis leaf extracts (Arabidopsis thaliana (endogenous in Col-0 leaves)), O49686
T1 chain: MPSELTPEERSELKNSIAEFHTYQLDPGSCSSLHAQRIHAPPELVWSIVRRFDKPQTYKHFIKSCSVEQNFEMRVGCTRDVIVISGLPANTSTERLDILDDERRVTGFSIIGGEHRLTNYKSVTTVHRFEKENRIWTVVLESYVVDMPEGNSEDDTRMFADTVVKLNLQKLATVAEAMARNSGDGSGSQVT

T2: recombinant HisAtPYR1 (Arabidopsis thaliana), O49686
T2 chain: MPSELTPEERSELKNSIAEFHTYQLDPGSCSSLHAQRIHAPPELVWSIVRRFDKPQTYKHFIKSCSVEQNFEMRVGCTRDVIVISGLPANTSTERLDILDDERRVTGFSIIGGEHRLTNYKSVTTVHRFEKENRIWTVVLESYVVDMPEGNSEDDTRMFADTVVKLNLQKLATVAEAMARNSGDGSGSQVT


Experiments:
[1] = molecular target: T1, PYR1 in Arabidopsis leaf extracts …; test: non-reducing SDS-PAGE and Western blot of oligomeric forms; leaf extracts of Arabidopsis, anti-PYR1; wild type extract without blocking or alkylating agent, also with 50 mM DTT or 4 mM H2O2 added; WT, KO and OEX Attrxo1 plants with or without 10 μM ABA for 48 h (extracts with 5 mM NEM); conditions: remark: other sources report otherwise
[2] = molecular target: T2, recombinant HisAtPYR1 (Arabidopsis …); test: SDS-PAGE and Western blot of oligomeric forms; recombinant HisAtPYR1 or its Cys mutants in 20 mM Tris-HCl pH 7.9, untreated, with 4 mM H2O2, or 2 mM DTT and then 4 mM H2O2 (30 min, room temperature); 2.5 μg on SDS-PAGE, anti-AtPYR1; conditions: remark: other sources report otherwise
[3] = molecular target: the molecule itself; test: as above

Binder	amount of dimers, fold of PYR1 [3] [fold]	also measured
PYR1 in Arabidopsis leaf extracts, O49686 1-191 (receptor) MPSELTPEERSELKNSIAEFHTYQLDPGSCSSLHAQRIHAPPELVWSIVRRFDKPQTYKHFIKSCSVEQNFEMRVGCTRDVIVISGLPANTSTERLDILDDERRVTGFSIIGGEHRLTNYKSVTTVHRFEKENRIWTVVLESYVVDMPEGNSEDDTRMFADTVVKLNLQKLATVAEAMARNSGDGSGSQVT	–	stoichiometry N [1]: 2
recombinant HisAtPYR1, O49686 1-191 (receptor) MPSELTPEERSELKNSIAEFHTYQLDPGSCSSLHAQRIHAPPELVWSIVRRFDKPQTYKHFIKSCSVEQNFEMRVGCTRDVIVISGLPANTSTERLDILDDERRVTGFSIIGGEHRLTNYKSVTTVHRFEKENRIWTVVLESYVVDMPEGNSEDDTRMFADTVVKLNLQKLATVAEAMARNSGDGSGSQVT	–	stoichiometry N [2]: 2
HisAtPYR1C65S (receptor, Arabidopsis thaliana, UniProt O49686 1-191, looked up, PYR1 of Arabidopsis thaliana (At4g17870) with Cys65 replaced by Ser; cloned in NcoI/EcoRI of pETM11; source: E. coli BL21, purified (Ni-NTA agarose)) MPSELTPEERSELKNSIAEFHTYQLDPGSCSSLHAQRIHAPPELVWSIVRRFDKPQTYKHFIKSSSVEQNFEMRVGCTRDVIVISGLPANTSTERLDILDDERRVTGFSIIGGEHRLTNYKSVTTVHRFEKENRIWTVVLESYVVDMPEGNSEDDTRMFADTVVKLNLQKLATVAEAMARNSGDGSGSQVT	2.3	–
HisAtPYR1C30S (receptor, Arabidopsis thaliana, UniProt O49686 1-191, looked up, PYR1 of Arabidopsis thaliana (At4g17870) with Cys30 replaced by Ser; cloned in NcoI/EcoRI of pETM11; source: E. coli BL21, purified (Ni-NTA agarose)) MPSELTPEERSELKNSIAEFHTYQLDPGSSSSLHAQRIHAPPELVWSIVRRFDKPQTYKHFIKSCSVEQNFEMRVGCTRDVIVISGLPANTSTERLDILDDERRVTGFSIIGGEHRLTNYKSVTTVHRFEKENRIWTVVLESYVVDMPEGNSEDDTRMFADTVVKLNLQKLATVAEAMARNSGDGSGSQVT	0.3	–
HisAtPYR1C77S (receptor, Arabidopsis thaliana, UniProt O49686 1-191, looked up, PYR1 of Arabidopsis thaliana (At4g17870) with Cys77 replaced by Ser; cloned in NcoI/EcoRI of pETM11; source: E. coli BL21, purified (Ni-NTA agarose)) MPSELTPEERSELKNSIAEFHTYQLDPGSCSSLHAQRIHAPPELVWSIVRRFDKPQTYKHFIKSCSVEQNFEMRVGSTRDVIVISGLPANTSTERLDILDDERRVTGFSIIGGEHRLTNYKSVTTVHRFEKENRIWTVVLESYVVDMPEGNSEDDTRMFADTVVKLNLQKLATVAEAMARNSGDGSGSQVT	0.6	–
